Test results as given in PMC3955401 (Nature, 2013).
No end group written: not given here.

Columns and labels:
Assay in all cases: pull-down
GST-53BP1 Tudor-UDR = GST-53BP1 Tudor-UDR (UniProt Q12888 1484-1631)
GST-53BP1 Tudor = GST-53BP1 Tudor (UniProt Q12888 1484-1603)
[1] = molecular target: GST-53BP1 Tudor-UDR L1619A (UniProt Q12888 1484-1631, L1619A)

Measured: binding result

Chain of GST-53BP1 Tudor-UDR (Q12888 1484-1631): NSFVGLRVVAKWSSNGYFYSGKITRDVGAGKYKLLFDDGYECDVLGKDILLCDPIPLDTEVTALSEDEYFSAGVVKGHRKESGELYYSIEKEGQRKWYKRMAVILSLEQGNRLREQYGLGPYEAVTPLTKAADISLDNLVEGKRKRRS
Chain of GST-53BP1 Tudor-UDR L1619A (Q12888 1484-1631 L1619A): as the sequence (Q12888 1484-1631) above, with L136A counted along it
Chain of GST-53BP1 Tudor (Q12888 1484-1603): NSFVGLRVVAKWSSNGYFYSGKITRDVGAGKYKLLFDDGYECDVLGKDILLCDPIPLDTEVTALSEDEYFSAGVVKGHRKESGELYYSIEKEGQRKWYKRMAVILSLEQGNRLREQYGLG

YGKGGAKRHRK(dimethyl)VLRD [H4K20me2 peptide]
binds: GST-53BP1 Tudor-UDR | GST-53BP1 Tudor | [1]
